For experiment [1], the target named is T1, CDK2-cyclin A^173−432 (human, UniProt P24941 1-298; P20248 173-432). Put plainly: fluorescence polarisation. Background: Fluorescence polarisation rises when a labelled molecule tumbles more slowly, as on binding a larger partner.
The target in the next experiment is CDK2-cyclin A^1−432 (human, UniProt P24941 1-298; P20248 1-432). Briefly: pull-down.
The target of experiment [2] is T1, CDK2-cyclin A^173−432. Put plainly: fluorescence polarisation. The source holds these as a separate data set.
The target of experiment [3] is T1, CDK2-cyclin A^173−432. Briefly: ITC. For orientation: ITC needs no label: the signal is the heat of the interaction.
In experiment [4] the target is T1, CDK2-cyclin A^173−432. Briefly: fluorescence polarisation. This is another data set of the same source.

Where two headings read alike, the source gives them in different places. No end group written: not given here.

In turn, SACRNLFGPV-NH2 (not fully specified (N-terminus)) [FITC-p27^27−36 peptide] gave a Kd in the experiment with CDK2-cyclin A^173−432 [1] of 2.1 µM.

B1: GST-Skp2^1−64 (domain or fragment)
chain: MHRKHLQEIPDLSSNVATSFTWGWDSSKTSELLSGMGVSALEKEEPDSENIPQELLSNLGHPES
Turning to B1, in the experiment with CDK2-cyclin A^1−432, the binding result is “binds”.

B2: GST-Skp2^1−94 (domain or fragment)
chain: MHRKHLQEIPDLSSNVATSFTWGWDSSKTSELLSGMGVSALEKEEPDSENIPQELLSNLGHPESPPRKRLKSKGSDKDFVIVRRPKLNRENFPG
Regarding B2, in the experiment with CDK2-cyclin A^1−432, the binding result was “binds”.

B3: GST-Skp2^1−85 (domain or fragment)
chain: MHRKHLQEIPDLSSNVATSFTWGWDSSKTSELLSGMGVSALEKEEPDSENIPQELLSNLGHPESPPRKRLKSKGSDKDFVIVRRP
For the molecule B3, the binding result with CDK2-cyclin A^1−432 is “binds”.
On the same count and under the same terms, under MHRKHLQEIPDLSSNVATSFTWGWDSSKTSELLSGMGVSALEK (domain or fragment) [GST-Skp2^1−43] stands “binds”.

B4: GST-Skp2^1−74 (domain or fragment)
chain: MHRKHLQEIPDLSSNVATSFTWGWDSSKTSELLSGMGVSALEKEEPDSENIPQELLSNLGHPESPPRKRLKSKG
For the molecule B4, the binding result with CDK2-cyclin A^1−432 is listed as “binds”.

B5: Skp2^17−85 (domain or fragment)
chain: ATSFTWGWDSSKTSELLSGMGVSALEKEEPDSENIPQELLSNLGHPESPPRKRLKSKGSDKDFVIVRRP
With B5, the IC50 in the experiment with CDK2-cyclin A^173−432 [2] is 5.1 µM; with CDK2-cyclin A^173−432 [4], 13.4 µM. Further, the Kd with CDK2-cyclin A^173−432 [3] came to 0.496 µM.

B6: GST-Skp2^1−53 (domain or fragment)
chain: MHRKHLQEIPDLSSNVATSFTWGWDSSKTSELLSGMGVSALEKEEPDSENIPQ
On to B6, for which the binding result in the experiment with CDK2-cyclin A^1−432 is on record as “binds”.

As usually defined, the Kd is the concentration at which binding is half-saturated. As a reminder, the IC50 is the concentration that gives 50% inhibition.
